Experimental data from patent publication US12421321B2, “Methods for treating fibrodysplasia ossificans progressiva” (Ashibio, Inc., priority 2023, dated 2025).
Read-outs that look alike come from different tables or passages of the source.

Experiments:
[1] = test system: HT1080 cells; conditions: cited from earlier work
[2] = target: T1, pro-MMP-9 (Homo sapiens, UniProt P14780, Q279R/R574P); conditions: cited from earlier work
T1 construct: Human MMP-9 protein (without)

[3] = in vivo; cited from earlier work
[4] = test system: MDA-MB-435; conditions: MDA-MB-435 mouse models; cited from earlier work
[5] = test system: fibrodysplasia ossificans progressiva; conditions: in vivo; cited from earlier work
[6] = human, in vivo; cited from earlier work
[7] = Pooled safety analysis of double-blind placebo-controlled trials, subcutaneous andecaliximab monotherapy, non-oncologic conditions; assay type: in vivo, human; conditions: for Participants with TEAE assessed as related to study drug: double-blind period
Experimental: A pooled analysis was conducted of all safety data from prior randomized, double-blind, placebo-controlled clinical trials where andecaliximab was administered subcutaneously as a monotherapy in non-oncologic conditions.
The pooled safety analysis consisted of 347 patients enrolled in double-blind (DB) placebo-controlled trials [age 18-78 yrs, median duration of treatment: DB=8 wk; DB+ open label extension (OLE)=17 wk; max 75 wk]. During the DB treatment period, treatment-emergent adverse event (TEAE) assessed as related to study drug occurred in 19 (17.8%) receiving 150 mg Q2W, 23 (20.2%) receiving 150 mg QW, 13 (22.4%) receiving 300 mg QW, none of those receiving 600 mg andecaliximab QW, and 20 participants (22.0%) received a placebo. Treatment-related TEAEs more common with andecaliximab compared with placebo (difference of >1 percentage point) were injection site erythema (2.1% versus 1.1%), headache (1.4% versus 0%), anemia (1.1% versus 0%), and injection site pain (1.1% versus 0%).

[8] = target: T2, MMP-9 (Homo sapiens, UniProt P14780); conditions: cited from earlier work
Target sequence in this assay (P14780 107-707 limits assumed): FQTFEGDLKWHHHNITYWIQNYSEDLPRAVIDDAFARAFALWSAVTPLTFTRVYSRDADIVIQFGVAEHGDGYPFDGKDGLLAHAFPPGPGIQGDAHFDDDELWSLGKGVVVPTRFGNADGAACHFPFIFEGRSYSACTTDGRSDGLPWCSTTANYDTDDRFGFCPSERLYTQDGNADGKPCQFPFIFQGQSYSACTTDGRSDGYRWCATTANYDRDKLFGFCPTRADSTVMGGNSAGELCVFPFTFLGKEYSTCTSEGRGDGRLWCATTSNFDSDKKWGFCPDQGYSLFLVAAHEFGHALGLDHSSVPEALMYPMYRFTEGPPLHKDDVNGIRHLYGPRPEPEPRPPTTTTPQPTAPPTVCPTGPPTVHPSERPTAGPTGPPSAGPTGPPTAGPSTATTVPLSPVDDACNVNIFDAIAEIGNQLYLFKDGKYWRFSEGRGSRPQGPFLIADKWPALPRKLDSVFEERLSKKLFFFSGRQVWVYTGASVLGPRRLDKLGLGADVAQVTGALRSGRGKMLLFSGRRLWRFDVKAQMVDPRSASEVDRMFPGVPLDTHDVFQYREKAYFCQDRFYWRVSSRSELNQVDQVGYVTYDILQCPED

[9] = target: T1, pro-MMP-9; conditions: cited from earlier work; remark: listed apart in the source
[10] = target: T1, pro-MMP-9; conditions: read-out: IC50, activation of MMP-9 from human pro-MMP-9; cited from earlier work
[11] = test system: mouse model of multiple sclerosis; conditions: cited from earlier work
[12] = target: T2, MMP-9; conditions: read-out: Ki against MMP-9, cited from earlier work
Target sequence in this assay (P14780 94-707): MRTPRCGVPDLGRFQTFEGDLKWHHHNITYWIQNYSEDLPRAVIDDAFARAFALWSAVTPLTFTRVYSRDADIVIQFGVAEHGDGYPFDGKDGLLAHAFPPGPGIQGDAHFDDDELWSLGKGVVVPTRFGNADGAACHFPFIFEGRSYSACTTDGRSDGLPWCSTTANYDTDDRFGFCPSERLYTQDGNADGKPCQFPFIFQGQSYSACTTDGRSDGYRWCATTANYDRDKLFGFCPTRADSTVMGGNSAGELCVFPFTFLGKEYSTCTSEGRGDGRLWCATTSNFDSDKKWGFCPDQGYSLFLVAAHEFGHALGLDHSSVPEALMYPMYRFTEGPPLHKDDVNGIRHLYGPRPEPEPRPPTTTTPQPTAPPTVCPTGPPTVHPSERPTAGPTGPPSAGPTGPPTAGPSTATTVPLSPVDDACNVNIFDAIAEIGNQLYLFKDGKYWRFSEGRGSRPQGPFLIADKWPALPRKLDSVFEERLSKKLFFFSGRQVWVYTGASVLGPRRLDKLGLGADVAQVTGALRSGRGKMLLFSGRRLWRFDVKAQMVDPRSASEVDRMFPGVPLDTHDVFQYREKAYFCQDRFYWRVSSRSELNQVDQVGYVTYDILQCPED

[13] = test system: heterotopic ossification; assay: Inducible FOP mouse model (Acvr1 R206H, tamoxifen plus cardiotoxin), HO volume by micro-CT; assay type: in vivo, mice; conditions: 30 mg/kg loading, then 15 mg/kg IP; micro CT 14-24 days post-injury
Experimental: FIG. 1 is a plot showing heterotopic ossification (HO) in an inducible mouse model of FOP having the R206H mutation (Acvr1[R206H]FIEx/+, Gt(ROSA26)SorCreERT2/+) treated with a control vehicle or AB0046 antibody (murine surrogate of andecaliximab that recapitulates MMP-9 inhibitory activity). The induction of disease occurred via tamoxifen (75 mg/kg×7 days, IP) and cardiotoxin injection on day 0 (10 μM, 100 μL) in the right gastrocnemius muscle. Dosing occurred at 30 mg/kg three days prior to injury (loading dose to address initial target-mediated drug disposition), then 15 mg/kg on days 0 and 3, or 15 mg/kg continuing twice per week after day […]. Ex vivo quantification of HO at the injury site was assessed using high-resolution micro CT and analyzed using 3D morphometry.
As described in Hatsell et al (Science Translational Medicine 2015), a knock-in transgenic model (Acvr1[R206H]FIEx/+; Gt(ROSA26)SorCreERT2/+) is used for these studies. […]
Faxitron images (medio-lateral view) of the collected entire right and left hindlimbs from all animals were performed (ex vivo) to document the presence of ectopic bone. Images were assessed qualitatively.
The effect of the anti-MMP-9 antibody, AB0046, on bone formation in the mouse model was evaluated ex vivo at the end of the in-life period. […]

[14] = test system: colorectal carcinoma xenograft; conditions: surgical orthotopic xenograft model of colorectal carcinoma; cited from earlier work
[15] = pooled andecaliximab (placebo 0%)

T1 sequence (P14780 20-707 Q279R/R574P): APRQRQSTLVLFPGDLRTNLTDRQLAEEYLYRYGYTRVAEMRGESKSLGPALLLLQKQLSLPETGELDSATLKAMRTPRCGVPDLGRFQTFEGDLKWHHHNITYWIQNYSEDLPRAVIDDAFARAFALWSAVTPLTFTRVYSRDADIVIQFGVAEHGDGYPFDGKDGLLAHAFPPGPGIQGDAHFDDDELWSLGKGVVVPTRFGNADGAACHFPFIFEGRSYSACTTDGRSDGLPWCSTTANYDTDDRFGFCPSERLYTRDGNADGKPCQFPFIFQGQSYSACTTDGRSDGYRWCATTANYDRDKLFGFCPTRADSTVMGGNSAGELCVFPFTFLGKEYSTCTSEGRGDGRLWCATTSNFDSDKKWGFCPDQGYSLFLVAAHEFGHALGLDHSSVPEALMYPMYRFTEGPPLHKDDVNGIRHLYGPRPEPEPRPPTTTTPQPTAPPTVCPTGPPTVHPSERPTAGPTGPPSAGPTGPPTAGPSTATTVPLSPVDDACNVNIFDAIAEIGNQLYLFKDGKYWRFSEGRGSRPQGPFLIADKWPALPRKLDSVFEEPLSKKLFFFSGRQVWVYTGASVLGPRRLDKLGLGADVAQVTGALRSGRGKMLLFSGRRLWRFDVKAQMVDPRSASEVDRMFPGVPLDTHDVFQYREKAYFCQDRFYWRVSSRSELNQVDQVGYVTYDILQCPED

COc1ccccc1Nc1nc(-c2sc(NC(C)=O)nc2C)cs1 [JNJ0966, N-(2-((2-methoxyphenyl)amino)-4′-methyl-[4,5′-bithiazol]-2′yl) acetamide]
Migration of HT1080 cells [1]: inhibits the migration of HT1080 cells
Activation of pro-MMP-9 [2]: prevents the activation of pro-MMP-9
Blood-brain barrier penetration [3]: penetrates the blood-brain barrier

CCCc1cc(=O)nc(SCC(=O)Nc2ccc(OC(F)F)cc2)[nH]1 [N-[4-(difluoromethoxy)phenyl]-2-[(4-oxo-6-propyl-1H-pyrimidin-2-yl)sulfanyl]-acetamide]
Tumor growth and metastasis [4]: reduced tumor growth and metastasis

CC1(C)CCC(C)(C)c2cc(Cn3cccn3)c(/C=C/c3ccc(C(=O)O)cc3)cc21 [Palovarotene, palovarotene]
Effect in mouse model of fibrodysplasia ossificans progressiva [5]: shown promise

andecaliximab: anti-MMP-9 recombinant chimeric, humanized antibody; heavy chain SEQ ID NO: 35, light chain SEQ ID NO: 36
Safety and tolerability in clinical trials [6]: safe and well-tolerated
Participants with TEAE assessed as related to study drug ([7]; 150 mg Q2W): 17.8%
Participants with TEAE assessed as related to study drug ([7]; 150 mg QW): 20.2%
Participants with TEAE assessed as related to study drug ([7]; 300 mg QW): 22.4%
Participants with TEAE assessed as related to study drug ([7]; 600 mg QW): none
Treatment-related TEAE: anemia [7, 15]: 1.1%
Treatment-related TEAE: headache [7, 15]: 1.4%
Treatment-related TEAE: injection site pain [7, 15]: 1.1%
Treatment-related TEAE: injection site erythema ([7]; pooled andecaliximab (placebo 1.1%)): 2.1%
Kd [8]: 2000 to 6600 pM
Kd [9]: 8 to 43 pM
IC50 [10]: 8.2 pM

α1(V)GlyΨ{PO2H—CH2} Val [mep14, 32,Flp15, 33] THPI
Clinical severity and weight loss [11]: effectively reduced clinical severity and weight loss
Ki ([12]; 25° Celsius): 90600 pM
Ki ([12]; 37° Celsius): 980 pM

B1: AB0046: murine surrogate of andecaliximab that recapitulates MMP-9 inhibitory activity; SEQ ID NO: 33 and 32 (antibody)
heavy: MGWSSIILFLVATATGVHSQVQLQQPGSVLVRPGASVKLSCTASGYTFTSYWMNWVKQRPGQGLEWIGEIYPISGRTNYNEKFKVKATLTVDTSSSTAYMDLNSLTSEDSAVYYCARSRANWDDYWGQGTTLTVSSAKTTPPSVYPLAPGSAAQTNSMVTLGCLVKGYFPEPVTVTWNSGSLSSGVHTFPAVLQSDLYTLSSSVTVPSSTWPSETVTCNVAHPASSTKVDKKIVPRDCGCKPCICTVPEVSSVFIFPPKPKDVLTITLTPKVTCVVVDISKDDPEVQFSWFVDDVEVHTAQTQPREEQFNSTFRSVSELPIMHQDWLNGKEFKCRVNSAAFPAPIEKTISKTKGRPKAPQVYTIPPPKEQMAKDKVSLTCMITDFFPEDITVEWQWNGQPAENYKNTQPIMDTDGSYFVYSKLNVQKSNWEAGNTFTCSVLHEGLHNHHTEKSLSHSPGK
light: MSSAQFLGLLLLCFQGTRCDIQMTQTTSSLSASLGDRVTISCSASQGISNYLNWYQQKPDGTFKLLIYYTSILHSGVPSRFSGSGSGTDYSLTISNLEPEDIATYYCQQYGWLPRTFGGGTKLEIKRADAAPTVSIFPPSSEQLTSGGASVVCFLNNFYPKDINVKWKIDGSERQNGVLNSWTDQDSKDSTYSMSSTLTLTKDEYERHNSYTCEATHKTSTSPIVKSFNRNEC
Heterotopic ossification (HO) at the injury site versus IgG control [13]: reduced HO in mice
Tumor growth and metastasis [14]: reduced tumor growth and metastasis
